Test results as given in patent publication US20160228506A1, “Compositions and Formulations for Prevention and Reduction of Tumorigenesis, Cancer Cell Proliferation and Invasion, and Methods of Production and Use Thereof in Cancer Treatment” (PRONUTRIA, INC., priority 2013, published 2016).

What was measured:
[1] = system: SEQID-00338 kinase activity (AMP + ATP→ADP); test: Kinase activity of SEQID-00338 (ADP-Glo Max Assay); type: biochemical; conditions: 7 μg/mL, 30 minute reaction at 30° C.
Protocol: The ADP-Glo™ Max Assay was obtained from Promega (Catalog number V7001, Madison, Wis.). Adenosine Monophosphate was obtained from Sigma-Aldrich (Catalog number A1752, St. Louis, Mo.). 5× Kinase Buffer was prepared w/ 1.211 g Tris Base (Catalog number BP152-2, Fisher Bioreagents, Pittsburgh, Pa.), 692 μL 12% hydrochloric acid solution (Catalog number BDH3026-500MLP, VWR, Radnor, Pa.), 10.0 mL 500 mM magnesium chloride (Catalog number BP214-500, Fisher Bioreagents, Pittsburgh, Pa.) and the volume brought to 50 mL with MilliQ water and filtered through 0.22 μm PES filter (Catalog number SCGP00525, Millipore, Billerica, Mass.) into a sterile 50 mL tube.
Twelve his-tag purified mutant proteins and the wild-type protein at 35 μg/mL in Tris buffer were serially diluted to 7.0 and 1.4 μg/mL. Prepared kinase reaction mix at 0.5 mM AMP/0.5 mM ATP to test for activity and at 0 mM AMP/0 mM ATP to assay background activity by diluting 5× Kinase Buffer with appropriate volumes of 10 mM AMP and 10 mM ATP in MilliQ water. Duplicate reactions were prepared by mixing 9 μL of the reaction mixture with 6 μL of diluted SEQID-00338, mixing by pipetting up and down and dispensing 5 μL into a 384-well white OptiPlate (PerkinElmer, Waltham, Mass.). An ADP standard curve was prepared by serially diluting 4 mM ADP in MilliQ water and adding kinase buffer to 1× for a standard at 0.0005, 0.001, 0.005, 0.01, 0.05, 0.1, 0.5, 1, 2, 3, and 4 mM ADP. The plate was covered with a foil plate seal and incubated at 30° C. for 30 min. Following the kinase reaction, 5 μL of ADP-Glo™ Reagent was added to each well. The plate was sealed with a foil plate seal and placed on a horizontal plate shaker at 450 rpm for 2 minutes at room temperature. The plate was removed from the plate shaker and incubated at room temperature for 40 minutes. The plate was then centrifuged for 15 seconds at 1109×rcf and 10 μL of ADP-Glo™ Max Detection Reagent was added. The plate was sealed with a foil plate seal and shaken on a horizontal plate shaker at 450 rpm at room temperature for 2 minutes. The plate was then removed from the plate shaker and incubated at room temperature for 60 minutes. The plate was centrifuged for 15 seconds at 1109×rcf and the luminescence read on an EnspireAlpha plate reader (PerkinElmer, Waltham, Mass.).
The ADP standard curve was used to determine the concentration of ADP in sample wells in the presence or absence of substrate. Concentrations were determined by performing a non-linear 4 parameter logistic on the X=log(X) transformed ADP standard luminescence values. […] Where the background concentration of ADP in the absence of substrate was calculable the average of those values were subtracted from the calculated ADP concentration in the substrate incubated wells. Activity knock out was calculated by percentage activity relative to purified wild-type protein at the same concentration.

[2] = Intact half-life during simulated gastric fluid (SGF) digestion
[3] = Thermostability, temperature of aggregation (ProteoStat Thermal Shift); type: physicochemical; parameters: key to Tagg: temperature in °C
Protocol: The thermostability of proteins in a buffer cocktail of Citric Acid and Dibasic Sodium Phosphate over a pH range of 2.8 to 7.1 (preparation described above in Table E31B) was determined using the ProteoStat® Thermal Shift Stability Kit (Enzo Life Sciences) according to the manufacturer's standard protocol. Briefly, protein solutions (˜10 mg/ml) containing 1× ProteoStat TS Detection Reagent were heated from 25° C. to 95° C. at a rate of 0.5° C. per 30 sec using a real-time PCR (rtPCR) thermocycler (BioRad) equipped with a plate reader (SynergyMx, Biotek) while monitoring the fluorescence with a Texas Red filter.

[4] = pH solubility; type: physicochemical
Protocol: pH Solubility. […] Protein was either lyophilized and then resuspended in buffer cocktail mixtures, or concentrated and then spiked into buffer cocktail mixtures at a final protein concentration of 5 to 30 mg/ml. As a control, protein was also dissolved in a solution of 8 M urea. Protein solutions were shaken for 10 min at room temperature. Turbidity of proteins was determined by measuring the absorbance of protein solutions at 650 nm. The protein solution was then centrifuged for 10 min at 1100×g to pellet undissolved or precipitated protein. The soluble protein fraction (supernatant) was sampled and protein concentration was measured by one or more of the following methods: Coomassie Plus Protein Assay (Pierce), Chip electrophoresis, gel electrophoresis, and/or absorbance at 280 nm. The pH range over which select proteins remained greater than 80% soluble as determined by Bradford and the A650 value are listed in Table E31C.

[5] = SGF digest of 168 nutritive polypeptide library, intact protein by LC-MS/MS; type: in vitro ADME
In short: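 A 168-protein IMAC-purified recombinant library was digested in simulated gastric fluid and the 0 and 10 min samples were profiled by SDS-PAGE fractionation, in-gel trypsin digestion and nanoLC-MS/MS. Percent intact protein at 10 min is the ratio of spectral counts (t10/t0), summed over the peak fraction and two flanking fractions. Filters were 1% FDR and at least two unique peptides.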

B1: R134M: single amino acid mutant of SEQID-00338, substrate binding position 134 (protein, listed as Saccharomyces cerevisiae)
chain: MSSSESIRMVLIGPPGAGKGTQAPNLQERFHAAHLATGDMLRSQIAKGTQLGLEAKKIMDQGGLVSDDIMVNMIKDELTNNPACKNGFILDGFPRTIPQAEKLDQMLKEQGTPLEKAIELKVDDELLVARITGMLIHPASGRSYHKIFNPPKEDMKDDVTGEALVQRSDDNADALKKRLAAYHAQTEPIVDFYKKTGIWAGVDASQPPATVWADILNKLGKD
modifications: source: /note="strain ATCC 204508 / S288c"
In the case of B1, the “AVG percent activity relative to purified wild-type protein” value [1] is reported as 0.3%.

B2: R42G: single amino acid mutant of SEQID-00338, position 42 (protein, listed as Saccharomyces cerevisiae)
chain: MSSSESIRMVLIGPPGAGKGTQAPNLQERFHAAHLATGDMLGSQIAKGTQLGLEAKKIMDQGGLVSDDIMVNMIKDELTNNPACKNGFILDGFPRTIPQAEKLDQMLKEQGTPLEKAIELKVDDELLVARITGRLIHPASGRSYHKIFNPPKEDMKDDVTGEALVQRSDDNADALKKRLAAYHAQTEPIVDFYKKTGIWAGVDASQPPATVWADILNKLGKD
modifications: source: /note="strain ATCC 204508 / S288c"
In the case of B2, the “AVG percent activity relative to purified wild-type protein” value [1] is reported as 1.2%.

B3: R42A: single amino acid mutant of SEQID-00338, substrate binding position 42 (protein, listed as Saccharomyces cerevisiae)
chain: MSSSESIRMVLIGPPGAGKGTQAPNLQERFHAAHLATGDMLASQIAKGTQLGLEAKKIMDQGGLVSDDIMVNMIKDELTNNPACKNGFILDGFPRTIPQAEKLDQMLKEQGTPLEKAIELKVDDELLVARITGRLIHPASGRSYHKIFNPPKEDMKDDVTGEALVQRSDDNADALKKRLAAYHAQTEPIVDFYKKTGIWAGVDASQPPATVWADILNKLGKD
modifications: source: /note="strain ATCC 204508 / S288c"
In the case of B3, the “AVG percent activity relative to purified wild-type protein” value [1] is reported as 0.9%.

B4: R42C: single amino acid mutant of SEQID-00338, position 42 (protein, listed as Saccharomyces cerevisiae)
chain: MSSSESIRMVLIGPPGAGKGTQAPNLQERFHAAHLATGDMLCSQIAKGTQLGLEAKKIMDQGGLVSDDIMVNMIKDELTNNPACKNGFILDGFPRTIPQAEKLDQMLKEQGTPLEKAIELKVDDELLVARITGRLIHPASGRSYHKIFNPPKEDMKDDVTGEALVQRSDDNADALKKRLAAYHAQTEPIVDFYKKTGIWAGVDASQPPATVWADILNKLGKD
modifications: source: /note="strain ATCC 204508 / S288c"
For B4, the “AVG percent activity relative to purified wild-type protein” value [1] was 1.8%.

B5: R42I: single amino acid mutant of SEQID-00338, position 42 (protein, listed as Saccharomyces cerevisiae)
chain: MSSSESIRMVLIGPPGAGKGTQAPNLQERFHAAHLATGDMLISQIAKGTQLGLEAKKIMDQGGLVSDDIMVNMIKDELTNNPACKNGFILDGFPRTIPQAEKLDQMLKEQGTPLEKAIELKVDDELLVARITGRLIHPASGRSYHKIFNPPKEDMKDDVTGEALVQRSDDNADALKKRLAAYHAQTEPIVDFYKKTGIWAGVDASQPPATVWADILNKLGKD
modifications: source: /note="strain ATCC 204508 / S288c"
With B5 the “AVG percent activity relative to purified wild-type protein” value [1] was 1.5%.

B6: R134Y: single amino acid mutant of SEQID-00338, substrate binding position 134 (protein, listed as Saccharomyces cerevisiae)
chain: MSSSESIRMVLIGPPGAGKGTQAPNLQERFHAAHLATGDMLRSQIAKGTQLGLEAKKIMDQGGLVSDDIMVNMIKDELTNNPACKNGFILDGFPRTIPQAEKLDQMLKEQGTPLEKAIELKVDDELLVARITGYLIHPASGRSYHKIFNPPKEDMKDDVTGEALVQRSDDNADALKKRLAAYHAQTEPIVDFYKKTGIWAGVDASQPPATVWADILNKLGKD
modifications: source: /note="strain ATCC 204508 / S288c"
For B6, the “AVG percent activity relative to purified wild-type protein” value [1] was 0.2%.

B7: R42K: single amino acid mutant of SEQID-00338, position 42 (protein, listed as Saccharomyces cerevisiae)
chain: MSSSESIRMVLIGPPGAGKGTQAPNLQERFHAAHLATGDMLKSQIAKGTQLGLEAKKIMDQGGLVSDDIMVNMIKDELTNNPACKNGFILDGFPRTIPQAEKLDQMLKEQGTPLEKAIELKVDDELLVARITGRLIHPASGRSYHKIFNPPKEDMKDDVTGEALVQRSDDNADALKKRLAAYHAQTEPIVDFYKKTGIWAGVDASQPPATVWADILNKLGKD
modifications: source: /note="strain ATCC 204508 / S288c"
With B7 the “AVG percent activity relative to purified wild-type protein” value [1] was 2.2%.

B8: R42L: single amino acid mutant of SEQID-00338, position 42 (protein, listed as Saccharomyces cerevisiae)
chain: MSSSESIRMVLIGPPGAGKGTQAPNLQERFHAAHLATGDMLLSQIAKGTQLGLEAKKIMDQGGLVSDDIMVNMIKDELTNNPACKNGFILDGFPRTIPQAEKLDQMLKEQGTPLEKAIELKVDDELLVARITGRLIHPASGRSYHKIFNPPKEDMKDDVTGEALVQRSDDNADALKKRLAAYHAQTEPIVDFYKKTGIWAGVDASQPPATVWADILNKLGKD
modifications: source: /note="strain ATCC 204508 / S288c"
With B8 the “AVG percent activity relative to purified wild-type protein” value [1] was 1.7%.

B9: SEQID-00622: protein of the 168 nutritive polypeptide library (protein, listed as Oryza sativa)
chain: MASEGAVSPAFAYTVVYVKDVAKSAAFYSAAFGYTVRRLDQSHKWAELESGTTTIAFTPLHQRETDALTGAVQLPDSAGERGPVEICFDYADVDAAYRRAVDSGAVPVSPPEQKSWGQKVGYVRDIDGIIVRMGSHVRA
modifications: source: /note="subsp. japonica"
notes: protein of the 168 nutritive polypeptide library
In the case of B9, the “SGF Half-life (t½)” value ([2]; SGF pH 1.5, pepsin:polypeptide 1:20 w/w, 37° C., intact protein) is reported as 6.6 min, the “Half-life” value ([2]; purified proteins, chip electrophoresis) is reported as 6.6 min and the Tagg ([3]; pH 2.8) is reported as 58.5. The Tagg ([3]; pH 3.7) was 42, the Tagg ([3]; pH 3.9) was 42 and the Tagg ([3]; pH 4.3) was 43.5. For the same molecule, the Tagg ([3]; pH 4.6) was 43.5, the Tagg ([3]; pH 5.0) was 42.5 and the Tagg ([3]; pH 5.6) was 45.5. The Tagg ([3]; pH 6.0) was 46, the Tagg ([3]; pH 6.5) was 47 and the Tagg ([3]; pH 7.1) was 95. For the same molecule, the “pH Range where Protein is >80% detected as Soluble and A650 <1 OD: Low” value ([4]; lower pH) was 2.8, the “pH Range where Protein is >80% detected as Soluble and A650 <1 OD: High” value ([4]; upper pH) was 7.1 and the “% Intact Protein at 10 min” value ([5]; 168 nutritive polypeptide library SGF digest, LC-MS/MS spectral counts) was 43.6%. For the same molecule, the “% Remaining at 10 min” value ([5]; 168 nutritive polypeptide library, LC-MS/MS) was 43.6%.
